± gives the standard error. Fewer inactive variants are shown than the library holds.
B1: glmS ribozyme (parent)
chain: AUAAAAGCGCCAGAACUACAGAAAUGUAGUUGACGAGGAGGAGGUUUAUCGAAUUUUCGGCGGAUGCCUCCAAA

Key:
Details in all cases: with glucosamine-6-phosphate
glucosamine-6-phosphate [1] = variants of: B1; test: self-cleavage kobs at 40 uM GlcN6P; higher = faster cleavage; RNA array
In short: (§1)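 Using a hybridised Cy3 probe at 37 °C, barcoded ribozyme variants transcribed in situ by E. coli RNA polymerase on sequenced MiSeq chips were monitored across tiles imaged over ~14 h. The flow contained glucosamine-6-phosphate from 40 μM to 10 mM in HEPES/KCl/Mg(OAc)2 buffer. Signals were normalised to baseline and to non-cleaving reference variants before per-tile medians were fit to one- or two-exponential decays to yield kobs. Weighted Michaelis–Menten fits across concentrations gave kcat and KM.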

glucosamine-6-phosphate [2] = variants of: B1; test: self-cleavage kobs at 10000 uM GlcN6P; higher = faster cleavage; RNA array
In short: as §1

glucosamine-6-phosphate [3] = variants of: B1; test: self-cleavage kobs at 2500 uM GlcN6P; higher = faster cleavage; RNA array
In short: as §1

glucosamine-6-phosphate [4] = variants of: B1; test: self-cleavage kobs at 160 uM GlcN6P; higher = faster cleavage; RNA array
In short: as §1

glucosamine-6-phosphate [5] = variants of: B1; test: self-cleavage kobs at 640 uM GlcN6P; higher = faster cleavage; RNA array
In short: as §1

Row | Variant | self-cleavage kobs at 40 uM GlcN6P (glucosamine-6-phosphate [1]) [s⁻¹] | self-cleavage kobs at 10000 uM GlcN6P (glucosamine-6-phosphate [2]) [s⁻¹] | self-cleavage kobs at 2500 uM GlcN6P (glucosamine-6-phosphate [3]) [s⁻¹] | self-cleavage kobs at 160 uM GlcN6P (glucosamine-6-phosphate [4]) [s⁻¹] | self-cleavage kobs at 640 uM GlcN6P (glucosamine-6-phosphate [5]) [s⁻¹]
1 | AUAAAAGCGCCAGAACUACAGAAAUGUAGUUGACGAGAAGGAGGUUUAUCGUAUUUUCGGCGGAUGCCUCUAAA [G38A A52U C71U] | < 1e-05 | < 1e-05 |  |  | 
2 | AUAAAAGCGCCAGAACUACAGAAAUGUAGUUGACGACGAGUAGGUUUAUCGAAGUUUCGGCGGAUGCCUCCAAA [G37C G41U U54G] | < 1e-05 |  |  |  | 
3 | AUAAAAGCGCCAGAACUACAGAAAUGUAGUUGACGAUGAAGAGGUUUAUCGAAUUUUCUGCGGAUGCCUCCAAA [G37U G40A G59U] | < 1e-05 | < 1e-05 | < 1e-05 |  | 
4 | AUAAAAGCGCCAGAACUACAGAAAUGUAGUUGACGAUGAGGAGGUUUAUCGAAUUUUCGCCGGAUGCCUCCAAA [G37U G60C] | < 1e-05 |  |  | < 1e-05 | < 1e-05
5 | AUAAAAGCGCCAGAACUACAGAAAUGUAGUUGACGAGAAGGAAGUUUAUCGAAUUUUCGGCGGAUGCCUCCAAA [G38A G43A] | < 1e-05 | < 1e-05 |  |  | < 1e-05
6 | AUAAAAGCGCCAGAACUACAGAAAUGUAGUUGACGACGAGGAGGUUUAUCGAAACUUCGGCGCAUGCCGCCAAA [G37C U54A U55C G63C U69G] | < 1e-05 | < 1e-05 |  |  | 
7 | AUAAAAGCGCCAGAACUACAGAAAUGUAGUUGACGAGAAGAAGGUUUAUCGAAUUUUCGGCGCAUGCCUCCAAA [G38A G41A G63C] | < 1e-05 |  |  |  | 
8 | AUAAAAGCGCCAGAACUACAGAAAUGUAGUUGACGACGAGGAGGUUUAUCGAAUUUUCGGCGGAUGCAUCCAAA [G37C C68A] | < 1e-05 | < 1e-05 |  |  | 
9 | AUAAAAGCGCCAGAACUACAGAAAUGUAGUUGACGAGAAGGAGGUUUUUCGAAUUUUCGGCGGAUGCCUCCAAA [G38A A48U] | < 1e-05 | < 1e-05 |  |  | < 1e-05
10 | AUAAAAGCGCCAGAACUACAGAAAUGUAGUUGACGACGAGGAGGGUUAUCGAAUUUUCGGCGGAUGCCUCCAAA [G37C U45G] | < 1e-05 |  |  | < 1e-05 | < 1e-05
11 | AUAAAAGCGCCAGAACUACAGAAAUGUAGUUGACGAUGAGCAGGUUUAUCGAAUUUUCGGCGGAUGCCUUCAAA [G37U G41C C70U] | < 1e-05 |  |  |  | 
12 | AUAAAAGCGCCAGAACUACAGAAAUGUAGUUGACGACGAGUAGGUCUAUCGAAUUUUCGGCGGAUGCCUCCAAA [G37C G41U U46C] | < 1e-05 | < 1e-05 |  |  | 
13 | AUAAAAGCGCCAGAACUACAGAAAUGUAGUUGACGACGAGGAGUUUUAUCGAAUUUUCGGCGGAUGCCUCCAAA [G37C G44U] | < 1e-05 |  |  |  | < 1e-05
14 | AUAAAAGCGCCAGAACUACAGAAAUGUAGUUGACGACGAGGAGAUUUAUCGAAUUUUCGGCGGAUGCCUCCAAA [G37C G44A] | < 1e-05 | < 1e-05 |  | < 1e-05 | < 1e-05
15 | AUAAAAGCGCCAGAACUACAGAAAUGUAGUUGACGAUGAGGAGGUUUAUCGAAUUUUCUGCGGAUGCCUCCAAA [G37U G59U] | < 1e-05 |  |  |  | < 1e-05
16 | AUAAAAGCGCCAGAACUACAGAAAUGUAGUUGACGAAGAGGAGGUUUAUCGAAAUUUCGGCGGAUGCCUCCAAA [G37A U54A] | 7.84e-05 ± 1.8e-05 | 0.00478 ± 0.00082 |  |  | 
17 | AUAAAAGCGCCAGAACUACAGAAAUGUAGUUGACGAUGGGGAGGUUUAUCGAAUUUUCGGCGGAUGCCUCCAAA [G37U A39G] | < 1e-05 |  | < 1e-05 |  | 

— the supplement of paper PMC7125110
